According to patent US20160264649A1:

Assays:
Test in all cases: cell-based or functional assay
[1] = target: HIV-1 MGRM-A-011 Env (HIV-1)
[2] = target: HIV-1 MGRM-A-004 Env (HIV-1)
[3] = target: HIV-1 MGRM-AG-005 Env (HIV-1)
[4] = target: HIV-1 92WR009 Env (HIV-1)
[5] = target: HIV-1 93WR029 Env (HIV-1)
[6] = target: HIV-1 MGRM-A-009 Env (HIV-1)
[7] = target: HIV-1 MGRM-A-005 Env (HIV-1)
[8] = target: HIV-1 92UG037 Env (HIV-1)
[9] = target: HIV-1 MGRM-AG-008 Env (HIV-1)
[10] = target: HIV-1 MGRM-AG-013 Env (HIV-1)
[11] = target: HIV-1 MGRM-AE-008 Env (HIV-1)
[12] = target: HIV-1 MGRM-A-003 Env (HIV-1)
[13] = target: HIV-1 MGRM-AE-003 Env (HIV-1)
[14] = target: HIV-1 MGRM-AE-001 Env (HIV-1)
[15] = target: HIV-1 MGRM-AG-002 Env (HIV-1)
[16] = target: HIV-1 94UG103 Env (HIV-1)
[17] = target: HIV-1 MGRM-AG-009 Env (HIV-1)
[18] = target: HIV-1 93UG077 Env (HIV-1)
[19] = target: HIV-1 MGRM-AE-004 Env (HIV-1)
[20] = target: HIV-1 MGRM-A-013 Env (HIV-1)
[21] = target: HIV-1 MGRM-AG-012 Env (HIV-1)
[22] = target: HIV-1 94KE105 Env (HIV-1)
[23] = target: HIV-1 MGRM-A-002 Env (HIV-1)
[24] = target: HIV-1 MGRM-AG-011 Env (HIV-1)
[25] = target: HIV-1 92WR021 Env (HIV-1)
[26] = target: HIV-1 92RW008 Env (HIV-1)
[27] = target: HIV-1 MGRM-A-007 Env (HIV-1)
[28] = target: HIV-1 MGRM-A-006 Env (HIV-1)
[29] = target: HIV-1 92WR020 Env (HIV-1)
[30] = target: HIV-1 MGRM-A-012 Env (HIV-1)
[31] = target: HIV-1 MGRM-A-010 Env (HIV-1)
[32] = target: HIV-1 MGRM-AE-006 Env (HIV-1)
[33] = target: HIV-1 MGRM-AE-002 Env (HIV-1)
[34] = target: HIV-1 MGRM-AE-007 Env (HIV-1)
[35] = target: HIV-1 MGRM-A-008 Env (HIV-1)
[36] = target: HIV-1 MGRM-AG-006 Env (HIV-1)
[37] = target: HIV-1 92WR024 Env (HIV-1)
[38] = target: HIV-1 MGRM-AG-001 Env (HIV-1)
[39] = target: HIV-1 MGRM-A-014 Env (HIV-1)
[40] = target: HIV-1 MGRM-AG-003 Env (HIV-1)
HIV-1 VLGCA1 Env (HIV-1) = target: HIV-1 VLGCA1 Env (HIV-1)
[41] = target: HIV-1 92WR026 Env (HIV-1)
HIV-1 CMU02 Env (HIV-1) = target: HIV-1 CMU02 Env (HIV-1)
[42] = target: HIV-1 92UG031 Env (HIV-1)
[43] = target: HIV-1 92TH021 Env (HIV-1)
[44] = target: HIV-1 MGRM-AE-005 Env (HIV-1)
[45] = target: HIV-1 MGRM-A-001 Env (HIV-1)

**Q.** 5123_A06 (PGT-125) (antibody) was tested. Which IC50 [1] did it give?
**A.** > 50 mg/L

**Q.** And the IC50 [2]?
**A.** > 50 mg/L

**Q.** And the IC50 [3]?
**A.** > 50 mg/L

**Q.** What about the IC50 [4] of the same substance?
**A.** 0.144 mg/L

**Q.** And the IC50 [5]?
**A.** > 50 mg/L

**Q.** What about the IC50 [6] of the same substance?
**A.** 0.009 mg/L

**Q.** And the IC50 [7]?
**A.** > 50 mg/L

**Q.** What about the IC50 [8] of the same substance?
**A.** 0.005 mg/L

**Q.** And the IC50 [9]?
**A.** > 50 mg/L

**Q.** And the IC50 [10]?
**A.** 0.004 mg/L

**Q.** What about the IC50 [11] of the same substance?
**A.** > 50 mg/L

**Q.** And the IC50 [12]?
**A.** > 50 mg/L

**Q.** And the IC50 [13]?
**A.** 0.092 mg/L

**Q.** And the IC50 [14]?
**A.** 2.95 mg/L

**Q.** And the IC50 [15]?
**A.** > 50 mg/L

**Q.** And the IC50 [16]?
**A.** 0.008 mg/L

**Q.** And the IC50 [17]?
**A.** 0.026 mg/L

**Q.** What about the IC50 [18] of the same substance?
**A.** 0.012 mg/L

**Q.** And the IC50 [19]?
**A.** > 50 mg/L

**Q.** What about the IC50 [20] of the same substance?
**A.** 0.014 mg/L

**Q.** And the IC50 [21]?
**A.** > 50 mg/L

**Q.** What about the IC50 [22] of the same substance?
**A.** 0.004 mg/L

**Q.** And the IC50 [23]?
**A.** 0.013 mg/L

**Q.** What about the IC50 [24] of the same substance?
**A.** > 50 mg/L

**Q.** And the IC50 [25]?
**A.** 0.005 mg/L

**Q.** What about the IC50 [26] of the same substance?
**A.** 0.004 mg/L

**Q.** What about the IC50 [27] of the same substance?
**A.** > 50 mg/L

**Q.** And the IC50 [28]?
**A.** > 50 mg/L

**Q.** What about the IC50 [29] of the same substance?
**A.** 0.004 mg/L

**Q.** What about the IC50 [30] of the same substance?
**A.** 0.177 mg/L

**Q.** And the IC50 [31]?
**A.** 0.004 mg/L

**Q.** What about the IC50 [32] of the same substance?
**A.** 0.009 mg/L

**Q.** What about the IC50 [33] of the same substance?
**A.** > 50 mg/L

**Q.** And the IC50 [34]?
**A.** 0.876 mg/L

**Q.** And the IC50 [35]?
**A.** > 50 mg/L

**Q.** What about the IC50 [36] of the same substance?
**A.** 0.008 mg/L

**Q.** And the IC50 [37]?
**A.** 35.5 mg/L

**Q.** And the IC50 [38]?
**A.** > 50 mg/L

**Q.** And the IC50 [39]?
**A.** 13.9 mg/L

**Q.** And the IC50 [40]?
**A.** > 50 mg/L

**Q.** And the IC50 (HIV-1 VLGCA1 Env (HIV-1))?
**A.** 0.078 mg/L

**Q.** What about the IC50 [41] of the same substance?
**A.** 0.007 mg/L

**Q.** And the IC50 (HIV-1 CMU02 Env (HIV-1))?
**A.** > 50 mg/L

**Q.** What about the IC50 [42] of the same substance?
**A.** > 50 mg/L

**Q.** And the IC50 [43]?
**A.** 0.006 mg/L

**Q.** What about the IC50 [44] of the same substance?
**A.** 0.01 mg/L

**Q.** And the IC50 [45]?
**A.** 12.4 mg/L

**Q.** What does the source list for 5141_B17 (PGT-126) (antibody)?
**A.** IC50 [1]: > 50 mg/L; IC50 [2]: > 50 mg/L; IC50 [3]: 1.21 mg/L; IC50 [4]: > 50 mg/L; IC50 [5]: > 50 mg/L; IC50 [6]: 0.004 mg/L; IC50 [7]: > 50 mg/L; IC50 [8]: 0.011 mg/L; IC50 [9]: > 50 mg/L; IC50 [10]: 0.008 mg/L; IC50 [11]: > 50 mg/L; IC50 [12]: > 50 mg/L; IC50 [13]: > 50 mg/L; IC50 [14]: 9.68 mg/L; IC50 [15]: > 50 mg/L; IC50 [16]: 0.008 mg/L; IC50 [17]: 0.03 mg/L; IC50 [18]: 0.02 mg/L; IC50 [19]: > 50 mg/L; IC50 [20]: 0.006 mg/L; IC50 [21]: > 50 mg/L; IC50 [22]: 0.006 mg/L; IC50 [23]: 0.015 mg/L; IC50 [24]: 24.5 mg/L; IC50 [25]: 0.006 mg/L; IC50 [26]: 0.008 mg/L; IC50 [27]: > 50 mg/L; IC50 [28]: > 50 mg/L; IC50 [29]: 0.006 mg/L; IC50 [30]: 0.097 mg/L; IC50 [31]: 0.002 mg/L; IC50 [32]: 17.3 mg/L; IC50 [33]: > 50 mg/L; IC50 [34]: > 50 mg/L; IC50 [35]: > 50 mg/L; IC50 [36]: 0.01 mg/L; IC50 [37]: 42 mg/L; IC50 [38]: > 50 mg/L; IC50 [39]: 0.01 mg/L; IC50 [40]: > 50 mg/L; IC50 (HIV-1 VLGCA1 Env (HIV-1)): > 50 mg/L; IC50 [41]: 0.008 mg/L; IC50 (HIV-1 CMU02 Env (HIV-1)): > 50 mg/L; IC50 [42]: > 50 mg/L; IC50 [43]: 0.197 mg/L; IC50 [44]: 0.324 mg/L; IC50 [45]: > 50 mg/L

**Q.** How did the IC50 [1] turn out when 5145_B14 (PGT-127) (antibody) was run?
**A.** > 50 mg/L

**Q.** What about the IC50 [2] of the same substance?
**A.** > 50 mg/L

**Q.** What about the IC50 [3] of the same substance?
**A.** > 50 mg/L

**Q.** And the IC50 [4]?
**A.** > 50 mg/L

**Q.** And the IC50 [5]?
**A.** > 50 mg/L

**Q.** What about the IC50 [6] of the same substance?
**A.** 0.013 mg/L

**Q.** And the IC50 [7]?
**A.** > 50 mg/L

**Q.** And the IC50 [8]?
**A.** 0.014 mg/L

**Q.** And the IC50 [9]?
**A.** > 50 mg/L

**Q.** And the IC50 [10]?
**A.** 0.018 mg/L

**Q.** And the IC50 [11]?
**A.** > 50 mg/L

**Q.** What about the IC50 [12] of the same substance?
**A.** > 50 mg/L

**Q.** And the IC50 [13]?
**A.** > 50 mg/L

**Q.** And the IC50 [14]?
**A.** > 50 mg/L

**Q.** What about the IC50 [15] of the same substance?
**A.** > 50 mg/L

**Q.** And the IC50 [16]?
**A.** 0.017 mg/L

**Q.** What about the IC50 [17] of the same substance?
**A.** 0.059 mg/L

**Q.** And the IC50 [18]?
**A.** 0.055 mg/L

**Q.** What about the IC50 [19] of the same substance?
**A.** > 50 mg/L

**Q.** What about the IC50 [20] of the same substance?
**A.** 0.029 mg/L

**Q.** What about the IC50 [21] of the same substance?
**A.** > 50 mg/L

**Q.** And the IC50 [22]?
**A.** 0.023 mg/L

**Q.** And the IC50 [23]?
**A.** 9.42 mg/L

**Q.** What about the IC50 [24] of the same substance?
**A.** > 50 mg/L

**Q.** What about the IC50 [25] of the same substance?
**A.** 0.011 mg/L

**Q.** And the IC50 [26]?
**A.** 0.012 mg/L

**Q.** And the IC50 [27]?
**A.** > 50 mg/L

**Q.** And the IC50 [28]?
**A.** > 50 mg/L

**Q.** What about the IC50 [29] of the same substance?
**A.** 0.01 mg/L

**Q.** And the IC50 [30]?
**A.** 0.105 mg/L

**Q.** And the IC50 [31]?
**A.** 0.017 mg/L

**Q.** What about the IC50 [32] of the same substance?
**A.** > 50 mg/L

**Q.** What about the IC50 [33] of the same substance?
**A.** > 50 mg/L

**Q.** What about the IC50 [34] of the same substance?
**A.** > 50 mg/L

**Q.** And the IC50 [35]?
**A.** > 50 mg/L

**Q.** And the IC50 [36]?
**A.** 0.021 mg/L

**Q.** What about the IC50 [37] of the same substance?
**A.** > 50 mg/L

**Q.** And the IC50 [38]?
**A.** > 50 mg/L

**Q.** What about the IC50 [39] of the same substance?
**A.** 0.24 mg/L

**Q.** And the IC50 [40]?
**A.** > 50 mg/L

**Q.** And the IC50 (HIV-1 VLGCA1 Env (HIV-1))?
**A.** > 50 mg/L

**Q.** And the IC50 [41]?
**A.** 0.024 mg/L

**Q.** What about the IC50 (HIV-1 CMU02 Env (HIV-1)) of the same substance?
**A.** > 50 mg/L

**Q.** What about the IC50 [42] of the same substance?
**A.** > 50 mg/L

**Q.** What about the IC50 [43] of the same substance?
**A.** > 50 mg/L

**Q.** And the IC50 [44]?
**A.** > 50 mg/L

**Q.** What about the IC50 [45] of the same substance?
**A.** > 50 mg/L
